Assay results from the nanobody polyreactivity screen of Harvey et al. (2022).

Experiment: yeast display, Sf9 membrane polyspecificity reagent, FACS + sequencing; frameworks hold sequencing errors
Summary of the method: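 Sorting gates, low and high (top ~1%), were placed on anti-HA fluorescence to track expression and on streptavidin fluorescence to track reagent binding. A clone's polyreactivity label is taken from the gate it came out of. The reagent was 10% biotinylated, detergent-solubilized Sf9 membrane, applied for 1 hour at 4 °C to galactose-induced yeast display cells.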

Sequence | polyreactivity (PSR sort gate)
QVQLVESGGGLVQAGGSLRLSCAASGRTFFSNAMGWYRQAPGKERELVAVIDSGGSTYYADSVKGRFTISRDNAKNTVYLQMNSLKPEDTAVYYCAADTGTAPSEDYLGQGTQVTVSS | low polyreactivity
QVQLVESGGGLVQAGGSLRLSCAASGRTFFSYTMGWYRQAPGKEREFVAAITTSGGYTHYADSVKGRFTISRDNAKNTVYLQMNSLIPEDTAVYYCAAVGRYPYKGYNYWGQGTQVTVSS | high polyreactivity
QVQLVESGGGLVQAGGSLRLSCAASGRTFFVNAMGWYRQAPGKERELVAGITRTGGTTYYADSVKGRFTISRDNAKNTVYLQMNSLKPEDTAVYYCAATPGGTDLGGGYYGFDYWGQGTQVTVSS | low polyreactivity
QVQLVESGGGLVQAGGSLRLSCAASGRTFFVYDMGWYRQAPGKERELVAAISRGGSTNYADSVKGRFTISRDNAKNTVYLQMNSLKPEDTAVYYCAASVQYRRLKKFYYWGQGTQVTVSS | high polyreactivity
QVQLVESGGGLVQAGGSLRLSCAASGRTFFWYAMGWYRQAPGKERELVADISSSGGSTYYADSVKGRFTISRDNAKNTVYLQMNSLKPEDTAVYYCAALSPWWRGGYDYWGQGTQVTVSS | high polyreactivity
QVQLVESGGGLVQAGGSLRLSCAASGRTFFWYAMGWYRQAPGKERELVAGISRGGRTNYADSVKGRFTISRDNAKNTVYLQMNSLKPEDTAVYYCAADSWLTYFLGTSEHYYWGQGTQVTVSS | high polyreactivity
QVQLVESGGGLVQAGGSLRLSCAASGRTFFWYVMGWYRQAPGKERELVATISYGGITYYADSVKGRFTISRDNAKNTVYLQMNSLKPEETALYYCAAKPSRSLYYYWGQGTQVTVSS | high polyreactivity
QVQLVESGGGLVQAGGSLRLSCAASGRTFFYNARGWYRQEPGKERELVAAIDWSGDSTYYADSVKGRFTISRDNAKNTVYLQMNSLKPEDTAVYYCAARRKNRRDYDYYYWGQGTQVTVSS | high polyreactivity
QVQLVESGGGLVQAGGSLRLSCAASGRTFFYNTMGWYRQAPGKERELVARITRGGSTYYADSVKGRFTISRDNAKNSVYLQMNSLKPEDTAVYYCAAGYWRGYFLYGFDYWGQGTQVTVSS | high polyreactivity
QVQLVESGGGLVQAGGSLRLSCAASGRTFGANAMGWYRQAPGKERELVAAINSGDITNYADSVKGRFTISRDNAKNTVYLQMNSLKPEDTAVYYCAAGSYYTYSGYNYWGQGTQVTVSS | low polyreactivity
QVQLVESGGGLVQAGGSLRLSCAASGRTFGAYAMGCYRQAPGKERELVAAISIGGRTYYADSVKGRFTISRDKAKNTVYLQMNILKPEDTAVYYCNKVRSPWYDSWGQGTQVTVSS | high polyreactivity
QVQLVESGGGLVQAGGSLRLSCAASGRTFGAYAMGWYRQAPGKERELVAAISSSGGSTYYADSLKGRFTISRDNAKNTVYLQMNSLKPEDTAVYYCAKGWHRGVGFGYWGQGTQVTVSS | high polyreactivity
QVQLVESGGGLVQAGGSLRLSCAASGRTFGCYAMGWYRQAPGKERELVASITQRGGRTYYADSVKGRFTISRDNAKNTVYLQMNSLKPEDTAVYYCAAKTSPGMYYWVQGTQVTVSS | high polyreactivity
QVQLVESGGGLVQAGGSLRLSCAASGRTFGDYAMGWYRQAPGKERELVAAITIGGSTYYADSVKGRFTISRDNAKNTVYLQMNSLKPEDTAVYYCAATTYSIPSRYDSWGQGTQVNVSS | low polyreactivity
QVQLVESGGGLVQAGGSLRLSCAASGRTFGEYAMGWYRQAPGKERELVAAISSAGSTYYADSVKGRFTISRDNAKNTVYLQMNSLKPEDTAVYYCAASRKYGYGYWGQGTQVTVSS | high polyreactivity
QVQLVESGGGLVQAGGSLRLSCAASGRTFGFNAMGWYRQAPGKERELVAAISSSSSSTYYADSVKGRFTISRDIAKNTVYLQMNSLKPEDTAVYYCAADIVYVTWFYYWGQGTQVTVSS | low polyreactivity

Sequence | polyreactivity (PSR sort gate)
QVQLVESGGGLVQAGGSLRLSCAASGRTFGFYAMGWYRQAPGKERELVAAIRGSIGNTYYADSVKGRFTISRDNAKNTVYLQMNSLKPEDTAVYYCAKAIRYPSAKFYWGQGTQVTVSS | high polyreactivity
QVQLVESGGGLVQAGGSLRLSCAASGRTFGFYAMGWYRQAPGKERELVATISSSGGSTYYADSVKGRFTISRDNAKNTVYLQMNSLKPEDTAVYYCAADYLDSTYGYVYGWDDYWGQGTQVTVSS | low polyreactivity
QVQLVESGGGLVQAGGSLRLSCAASGRTFGFYVMGWYRQAPGKERELVAAITPGGNTNYADSVKGRFTISRDNAKNSVYLQMNRLKPEDTAVYYCAASPGTIASYEGDFWGQGTQVTVSS | low polyreactivity
QVQLVESGGGLVQAGGSLRLSCAASGRTFGGNAMGWYRQAPGKERELVAAISSGGSTNYADSVKGRFTISRDNAKNTVYLQMNSLKPEDTAVYYCAAGWYWWARYDYWGQGTQVTVSS | low polyreactivity
QVQLVESGGGLVQAGGSLRLSCAASGRTFGGNAMGWYRQAPGKERELVAAISSGGSTNYADSVKGRFTISRDNANNTVYLQMNSLKPEDTAVYYCAARGPYWGQGTQVTVSS | low polyreactivity
QVQLVESGGGLVQAGGSLRLSCAASGRTFGGNAMGWYRQAPGKERELVASISWSGGTTYYADSVKGRFTISRDNAKNTVYFQMNSLKPEDTAVYYCNTVNSQQYSSSHYDSWGQGTQVTVSS | high polyreactivity
QVQLVESGGGLVQAGGSLRLSCAASGRTFGGNTMGWYREAPGKERELVAAISRRGGSTYYADSVKGRFTISRDNAKNTVYLQMNSLKPEDTAVYYCNKDGPSYSSYDYWGQGTQVTVSS | low polyreactivity
QVQLVESGGGLVQAGGSLRLSCAASGRTFGGNTMGWYRQAPGKERELVAAISFSGGSTYYADSVKGRFTISRDNAKNTVYLQMNSLKPEDTAVYYCAREDYSHSFLTYDYWGQGTQVTVSS | low polyreactivity
QVQLVESGGGLVQAGGSLRLSCAASGRTFGGYALGWYRQAPGKERELVATISYSSGSTYYADSVKGRFTISRDNAKNTVYLQMNSLKPEETAVYYCAARIRYFYRYDYWGQGTQVTVTS | high polyreactivity
QVQLVESGGGLVQAGGSLRLSCAASGRTFGGYAMGWYRQAPGKERELVAAITSDTGTNYADSVKGRFTISRDNAKNTVYLQMNSLKPEDTAVYYCAADRFYEYDYWGQGTQVTVSS | low polyreactivity
QVQLVESGGGLVQAGGSLRLSCAASGRTFGGYTMGWYRQAPGKEREFVAAITWSTGGSTYYADSVKGRFTISRDNAKNTVYLQMNSLKPEDTAVYYCAKDLYLHTYYAYPYRFGSGYYWGLGTQVTVSS | low polyreactivity
QVQLVESGGGLVQAGGSLRLSCAASGRTFGGYTMGWYRQAPGKERELVAAISWGGGSTYYADSVKGRFTISRDNAKNTVYLQMNSLKPEDTAVYYCAAVSPNLRLFGYRYRYEYWGQGTQVTVSS | high polyreactivity
QVQLVESGGGLVQAGGSLRLSCAASGRTFGHNAMGWYRQAPGKEREFVAAITYSGVRTFYADSVKGRFTISRDNAKNTVYLQMNSLKPEDTAVFYCAAYYPSQDYSGFWSDTYEYWGQGTQVTVSS | low polyreactivity
QVQLVESGGGLVQAGGSLRLSCAASGRTFGINAMGWYRPAPGKERELVAAIRTGGSTYYADSVKGRFTISRDNAKNTVYLQMNSLKPEDTAVFYCAAVLYHNRKTEYTYGYWGQGTQVTVSS | high polyreactivity
QVQLVESGGGLVQAGGSLRLSCAASGRTFGINAMRWSRQATGKERELVAAITGRSGRTYYADSVKGRFTISRDNAKYTVYLQMNSLQPEDTAVYYCAARWPVYSRRYGYWGQGTQVTVSS | high polyreactivity
QVQLVESGGGLVQAGGSLRLSCAASGRTFGIYAMGWYRPAPGKERELVATISWRGGSTYYADSVKGRFTISRDNAKNTVYLQMNSLKPEDTAVYYCAAGYYPYWGQGTQVTVSS | low polyreactivity
